Test results from publication PMC5215794.

Key:
Experiment in all cases: cross-linking
[1] = biological target: VcINDY Q86C S95C (dimer interface cysteine mutant in the cysteine-free background) (Vibrio cholerae) (UniProt Q9KNE0)
[2] = biological target: VcINDY V68C S304C (dimer interface cysteine mutant in the cysteine-free background) (Vibrio cholerae) (UniProt Q9KNE0)
[3] = biological target: VcINDY N90C (dimer interface cysteine mutant in the cysteine-free background) (Vibrio cholerae) (UniProt Q9KNE0)
[4] = biological target: VcINDY K316C (dimer interface cysteine mutant in the cysteine-free background) (Vibrio cholerae) (UniProt Q9KNE0)

Substance: VcINDY Q86C S95C (dimer interface cysteine mutant in the cysteine-free background) (from UniProt Q9KNE0 14-462) (natural protein)
- stoichiometry N [1]: 2

Substance: VcINDY V68C S304C (dimer interface cysteine mutant in the cysteine-free background) (from UniProt Q9KNE0 14-462) (natural protein)
- stoichiometry N [2]: 2

Substance: VcINDY N90C (dimer interface cysteine mutant in the cysteine-free background) (from UniProt Q9KNE0 14-462) (natural protein)
- stoichiometry N [3]: 2

Substance: VcINDY K316C (dimer interface cysteine mutant in the cysteine-free background) (from UniProt Q9KNE0 14-462) (natural protein)
- stoichiometry N [4]: 2
